Article PMC11203266, “Continuous evolution of compact protein degradation tags regulated by selective molecular glues” (Science (New York, N.Y.), 2024)

Assays:
[1] = target: DDB1^ΔBPB•CRBN complex (tags cleaved, for BLI) (human) (UniProt Q96SW2); experiment: BLI; pomalidomide
[2] = target: two-zinc finger construct containing SD0, MBP–Avi–His fusion, biotinylated (UniProt Q13422); experiment: FRET; saturating pomalidomide; settings: complex
[3] = target: two-zinc finger construct containing SD0, MBP–Avi–His fusion, biotinylated (UniProt Q13422); experiment: FRET; pomalidomide titration (compound EC50 of ternary complex formation)

Chain of DDB1^ΔBPB•CRBN complex (tags cleaved, for BLI) (human) (Q96SW2 whole entry, stated change not applied, chain 1 of 2, the tested form may be a part): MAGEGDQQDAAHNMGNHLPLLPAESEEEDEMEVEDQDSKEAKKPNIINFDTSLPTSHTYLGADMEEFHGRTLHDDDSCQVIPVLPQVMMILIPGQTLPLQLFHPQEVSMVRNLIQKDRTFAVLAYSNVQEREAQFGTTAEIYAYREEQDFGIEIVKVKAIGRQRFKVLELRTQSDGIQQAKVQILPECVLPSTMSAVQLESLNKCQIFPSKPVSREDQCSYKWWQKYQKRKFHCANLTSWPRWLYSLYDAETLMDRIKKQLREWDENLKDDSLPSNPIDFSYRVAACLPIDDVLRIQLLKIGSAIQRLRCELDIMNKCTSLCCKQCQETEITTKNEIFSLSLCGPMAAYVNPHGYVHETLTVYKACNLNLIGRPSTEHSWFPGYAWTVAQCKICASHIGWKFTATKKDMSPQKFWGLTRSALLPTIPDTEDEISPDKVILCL
Chain of DDB1^ΔBPB•CRBN complex (tags cleaved, for BLI) (human) (Q16531 other isoform, or with tags, fused parts or gaps mutant, chain 2 of 2, further chain): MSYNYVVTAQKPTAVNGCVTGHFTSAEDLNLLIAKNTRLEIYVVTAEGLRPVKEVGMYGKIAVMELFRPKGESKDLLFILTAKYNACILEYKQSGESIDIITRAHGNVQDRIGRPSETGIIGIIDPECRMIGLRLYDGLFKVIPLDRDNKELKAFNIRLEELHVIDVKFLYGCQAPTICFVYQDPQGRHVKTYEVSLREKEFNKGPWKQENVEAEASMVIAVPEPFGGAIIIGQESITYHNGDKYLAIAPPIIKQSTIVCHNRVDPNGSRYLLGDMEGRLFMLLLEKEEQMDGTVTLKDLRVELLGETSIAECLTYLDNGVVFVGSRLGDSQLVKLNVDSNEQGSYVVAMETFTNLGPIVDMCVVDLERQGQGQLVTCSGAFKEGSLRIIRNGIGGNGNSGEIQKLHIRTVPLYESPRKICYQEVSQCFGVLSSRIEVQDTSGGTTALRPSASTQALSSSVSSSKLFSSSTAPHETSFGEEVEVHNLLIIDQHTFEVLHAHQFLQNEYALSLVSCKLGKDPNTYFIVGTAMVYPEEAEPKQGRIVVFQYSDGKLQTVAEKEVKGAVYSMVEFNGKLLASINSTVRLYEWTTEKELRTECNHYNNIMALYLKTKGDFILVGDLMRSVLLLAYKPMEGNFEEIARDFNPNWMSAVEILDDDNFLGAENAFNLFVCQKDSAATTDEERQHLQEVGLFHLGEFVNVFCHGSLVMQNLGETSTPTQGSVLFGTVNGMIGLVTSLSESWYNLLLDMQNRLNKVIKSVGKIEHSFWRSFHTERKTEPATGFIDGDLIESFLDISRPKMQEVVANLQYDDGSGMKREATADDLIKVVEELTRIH
Chain of two-zinc finger construct containing SD0, MBP–Avi–His fusion, biotinylated (Q13422 other isoform, or with tags, fused parts or gaps): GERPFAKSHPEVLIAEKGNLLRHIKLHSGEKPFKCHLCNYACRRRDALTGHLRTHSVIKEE

Kd [1] [nM]	koff [1] [s⁻¹]	Kd [2] [nM]	EC50 [3] [nM]	Substance
245	0.071			two-zinc finger construct containing SD0, MBP–Avi–His fusion, biotinylated (from UniProt Q13422 141-145; Q96JP5 450-460; Q13422 157-243)
		212	314	CRBN–eGFP•DDB1^ΔBPB (from UniProt Q96SW2 1-442; Q16531 1-395; Q16531 706-1140)
